Measurements published in publication PMC9456337.

Assays:
[1] = target: thiocyanate dehydrogenase (TcDH) from Thioalkalivibrio paradoxus ARh 1 (Thioalkalivibrio paradoxus ARh 1)
[2] = target: thiocyanate dehydrogenase (TcDH) from Thioalkalivibrio paradoxus ARh 1 (Thioalkalivibrio paradoxus ARh 1); test: ITC; aliquots (2.6 µL) of CytC552 injected into a 0.2-mL cell with 9.3 µM TcDH; 25 °C; 25 mM borate buffer, pH 9.5; fitted assuming either one or two binding sites of CytC552 in the TcDH dimer
[3] = target: recombinant cytochrome c552 (CytC552) from Thioalkalivibrio paradoxus (Thioalkalivibrio paradoxus ARh 1); test: NMR titration; oxidized 13C/15N-labelled CytC552 titrated with TcDH; intensity of the 1H signal of the heme HAB atom fitted with the Morrison equation; 1H/15N-HSQC chemical shift perturbation at saturating TcDH; slow exchange; 50 mM sodium phosphate, pH 7.0, 303 K

Row | Substance | specific activity of TcDH in thiocyanate oxidation with CytC552 as electron acceptor, pH optimum 9.5 [1] [µmol/min/mg] | Kd [2] [nM] | Kd [3] [nM] | stoichiometry N [3]
1 | recombinant cytochrome c552 (CytC552) from Thioalkalivibrio paradoxus (natural protein) | 7.3 | 1800 | – | –
2 | thiocyanate dehydrogenase (TcDH) from Thioalkalivibrio paradoxus ARh 1 (enzyme) | – | – | 2000 | 1
